Test: soluble on expression in E. coli; label from the status in PepcDB or PDB records
In the case of “MSLTHLFYLTRGAPLSLKENYYPWLKAGSFFPDALYSCAPSNKDWSDFAEFTHWPNFLMIAVSYWQQKYGQNDRLRGTHGSLALKSFLIGVFTHQIVDVSWHSLVTDYRMHGLLRVLSETEFDGDIETAHTFLDVMGEFLTLNNVIRDSNNNENWDFLTRSDWKLPREEDLMEIIRNAGLSKEKLSYAELEFCVKRGMAAAISEGYLFRSQRNQLLTNIYSTSPRANDLILNHWLGGQSNLVAMLQRCVPFFETLFHDENTNEAQAEELRLCANLPPVSQKRINARPLVSSLKARKGNSHIVVSPMKSFSDFGTSLTMGKFREDNKDYLAVSAPLEDTVGAIYIVPWDILTVARKEDFSILQPITAMYGSKVGTYKASDVDYLLVSQPGTCTIDFYFKGVKILTIKDETTEEAHQLQFAVTGNFYDDKIPDLVVSSPSYGANETGIATFIPGSSIISYLTNSDKYQVVDISTFKGVINLDGYPMKIPFQHFGATIQISDTTDKQKLIYITCQSLGTVFVYSSNDLHDLSIPIYYITKNGVIPAKDSDHVEWHIIPSKEHGMFGAAIYSWNFEGMSFVAVSQPMFDTVFIYIEKSGQIEFFLKLVLKIKTKSDSIPDEFGSSLLFNDEEKKLYVSSPGSFDARGSIWKISMDELLKAGNDPKRKTLLINNLRHLMLINPDKSSKGVSNFGNSMILGPQNHLIVGIPQYGYGNFDHMQLTGRILVLEGHHHHHH”, the “soluble on expression in E. coli” value is reported as “not soluble”. For “AQSVPYGISQIKAPALHSQGYTGSNVKVAVIDSGIDSSHPDLNVRGGASFVPSETNPYQDGSSHGTHVAGTIAALNNSIGVLGVSPSASLYAVKVLDSTGSGQYSWIINGIEWAISNNMDVINMSLGGPTGSTALKTVVDKAVSSGIVVAAAAGNEGSSGSTSTVGYPAKYPSTIAVGAVNSSNQRASFSSAGSELDVMAPGVSIQSTLPGGTYGAYNGTCMATPHVAGAAALILSKHPTWTNAQVRDRLESTATYLGNSFYYGKGLINVQAAAQ”, the “soluble on expression in E. coli” value was “soluble”. In the case of “MLKVIRRFFTAKQRQTPAKQDVELESGRGWAGLEEWRLVAKYSVGPVEYYLYRDNSEGVRLTFKEPPEPGEAVVKEIIAGNIEPVGEGERYHAEKRMSGYGRLYPLIIDGHIEEIAFEGPGRGVSVIHSLVPGRWIDVDLKLGEDEANSLALQLARKAGRSLSLAQPLAEGLTGEGHRVAVTFSREVSRFGSSFVIRKYPEKPVTMADLVASRVLTPLQAAYLWLLVESQQFIVVSGPMGSGKTTLLQALAGLIPPFYRVITIEDTPEIRLYNRHWDSLVTRPPLPGESMVEVDLEALLRFALRRRAEYIIVGEVRGREARLLAQAAASGHGSMTTMHGDTPEGVILRLQLEPISLPPVFLSLIGAIVMLRRLPGYGGAVRRRVVSITEIEGGEAVDVFAWDPKGDLVSPDNPRDIVESSFRLREAVSRIPDLITDLEAELSERAGLLEKLAGSPPEVFHKALARFYSERYGRV”, the “soluble on expression in E. coli” value is reported as “soluble”. For “MSEDRSSNGQKSWLGKLTQAFVHEPKNRQELLELLREAHQNKLLDSEALAIVEGAIQVADLQVRDIMVPRSQMISIKATQTPREFLPAVIDAAHSRYPVIGESHDDVLGVLLAKDLLPLILKADGDSDDVKKLLRPATFVPESKRLNVLLREFRANHNHMAIVIDEYGGVAGLVTIEDVLEQIVGDIEDEHDVEEDSYIKPLPSGDFLVKALTPVENFNEFFDSAFSDDEFDTVGGLVMNAFGHLPKRNEITEIGAYRFRILSADSRRIHLLRVTPISRP”, the “soluble on expression in E. coli” value was “not soluble”. With “ADDPIRMYFEPGHYTVMENCGEFEVRVVRRGDISTYASVEYETQDGTASAGTDFVGRKGLLSFPPGVDEQRFRIEVIDDDVFEEDECFYIRLFNPSEGVKLAVPMIATVMILDDDHAGIFAFTDSVFEITESVGRFE” the “soluble on expression in E. coli” value was “soluble”. With “MTNVFHHVRNFIEQQPAPAKTLEKSSSPNILYTALPKHWRSNKSFQEPFYVVLLTPVPDNTEVSIWAGNDEKPCEEVRNEKAKVHRQVAKFNDLRFVGRSGRGRKFHLTIVIHSAPMMVATVKNVIKVTVDGPRDARIPKPQGSLKRQAEQQTIFPNDIIRTPGPPMPMTMIPPPWFPLPMTQTFPPSFFPLISPGPHPSISAALWKIHSESMKTPIKQKVEQENVSLNTSTCLSSPSIFITPTSDDRKLKRPSSPRSITKSSETSINLIQETPESVESKRRRNVSITSSNSSSPTIWRPF” the “soluble on expression in E. coli” value was “not soluble”. For “MAICPELAQTDKSALANLSDETETLKNFTDEVQTSSSFSSSGGRQSSPLTSGSKLEREKQTPSLEQGDTQSELLDYKNYEKKLSKKWINYLKLKDSNFERHQPDTKLPTEITRVSDEELNALQSYCTMKINLIHRRGDSKKKTSSRHKKLHLGLDVEASERDAFSCTVPDELLNRIYFKNMRTTPKQEAAAKQHISYQCPYCNRKRAELALSAFLKQKKTLLESFLLQERIDEHLHTKDFLTRIGEAHQDFPRLSDDPRIIWKRLTEKSHIRYSGFERSETEQKMQRDGNSACHLPFSLPFLKRLTLIKPELVIVNDNV”, the “soluble on expression in E. coli” value was “not soluble”. For “MSLNLPSFTLDIKLAGDGPAGVEKQIQQMQAMVDDRVDLIIVQPTDNAALSSPLQAANQAGIPVVAYDQYISGGHLSAFVTSNNYQAGFLDGEYMAHHFADDHTIQIILVEYPYVSSTIDRVDGFFDALNQYKQPYRILRSYQAVEPVQGRAVGQQILQDFPQPGSVDALFTINDGGGLAIVDELEKAGRHELFVATIDGDPNSVARIRKGSIIKIDSAQFCGPIGAEAMRAAYAILTAGKVHEHWLVPVFPITRQSVAHYPGWSGPIPEHYSNPCLTFLCREGHHHHHH”, the “soluble on expression in E. coli” value was “not soluble”. With “SLDMQHRIRQLFQASIETKQQALEVLPPYIEQASLVMVNALLNEGKILSCGNGGSAGDAQHFSSELLNRFERERPSLPAVALTTDSSTITSIANDYSYNEVFSKQIRALGQPGDVLLAISTSGNSANVIQAIQAAHDREMLVVALTGRDGGGMASLLLPEDVEIRVPSKITARIQEVHLLAIHCLCDLIDRQLFGSEEEG” the “soluble on expression in E. coli” value was “soluble”. With “MSQLLKLKSQYDDECTVTRHYEGKGRNAGRLGAVGCKNRHGEFRIGSGFKDKDRDNPPKIGTLITYRYRGFTRKGTPKFATFVRVRTLEHHHHHH” the “soluble on expression in E. coli” value was “not soluble”. For “MIRQRRRALTPEQQQEMGQQAATRMMTYPPVVMAHTVAVFLSFDGELDTQPLIEQLWRAGKRVYLPVLHPFSAGNLLFLNYHPQSELVMNRLKIHEPKLDVRDVLPLSRLDVLITPLVAFDEYGQRLGMGGGFYDRTLQNWQHYKTQPVGYAHDCQLVEKLPVEEWDIPLPAVVTPSKVWEWMGHHHHHHSH”, the “soluble on expression in E. coli” value was “not soluble”. For “VRGLPRAKKLEKLGVFSACKANGTCKCNGWKNPKPPTAPRIDLQQPAANLSELCRSCEHPLADHVSHLENVSEDEINRLLGMVVDVENLFMSVHKEEDTDTKQVYFYLFKLLRKCILQMTRPVVEGSLGSPPFEKPNIEQGVLNFVQYKFSHLAPRERQTMFELSKMFLLCLNYWELETPAQFRQRSQAEDVATYKVNYTRWLCYCHVPQSCDSLPRYETTHVFGRS”, the “soluble on expression in E. coli” value was “soluble”. With “RKRPLVLTADRGRGKSSALGIACAQLLQHKPLRILLTAPSINAVEPVYQHAQRLLTDAKQMKKDRLEVGYGYIQFIAPDELLSSLPECDLLLVDEAAAIPVPMLKQITEHYHRLVFSSTIHGYEGCGRGFTLKFIEWLQQQRPGMKTYHMQQPIRWSVDDKLEMWLYDAFILN” the “soluble on expression in E. coli” value was “not soluble”. In the case of “MSLSDKTMTADEAVSRLRSGMTLGIGGWGSRRKPMALVRALLRSGITDLTVVSCGGPDVGMLAAAGRIRKLVAAFVTLDSIPLEPHYRAARERGALELMEIDEAMFLWGLRAAAGRLPFLPVRAGIGSDVMRVNPGLRTITSPYVDGETFVAMPALRLDAALVHLNRADRLGNGQYLGPDPYFDDLFCEAADTAYVSCERVVDTAELTKEAAPQTLLVKRHTVTGVVEAEGHHHHHH”, the “soluble on expression in E. coli” value is reported as “not soluble”. In the case of “AYKVTLKTPDGDITFDVEPGERLIDIGSEKADLPLSCQAGACSTCLGKIVSGTVDQSEGSFLDDEQIEQGYVLTCIAIPESDVVIETHKEDEL”, the “soluble on expression in E. coli” value is reported as “soluble”. With “MHGTCLSGLYPEPFTHNSHDYPHFNIYISFGGPKYCITALNTYVIPLLHHILTTQFIHTYFNIPTKSPPKSPKHKNYLSFNFTK” the “soluble on expression in E. coli” value was “soluble”. For “SLADHMLKRACEWMRFLGYTVYYPECHYDNDILKTCIEKKLVLLTRDIELYKRYALSVYIDSVNINEQIIQITRQFPPDPGKFMTKCPDCGSDLILMRSNGLDIPDKIKKSFSMVRYCNKCSKAFWPGTHYIKIIEKINRLLK”, the “soluble on expression in E. coli” value was “not soluble”. In the case of “MGHHHHHHSHMEWKVKVRSDGTRYVAKRPVRDRLLKARALKIREERSGMTTDDDAVSEMKMGRYWSKEERKQHLIRAREQRKRREFMMQSRLECLREQQNGDSKPELNIIALSHRKTMKKRNKKILDNWITIQEMLAHGARSADGKRVYNPLLSVTTV”, the “soluble on expression in E. coli” value is reported as “not soluble”. In the case of “EVVPLAFTKAATQPAPGVKPYNALQVAGRDIYIREGCYNCHSQMIRPFRAETERYGHYSVAGESVYDHPFQWGSKRTGPDLARVGGRYSDEWHRIHLLNPRDVVPESNMPAFPWLARNKVDVDATVANMKALRKVGTPYSDEEIAKAPEALANKSELDAVVAYLQGLGLALKNVR”, the “soluble on expression in E. coli” value is reported as “not soluble”. In the case of “HLPKPTLWAEPGSVITQGSPVTLRCQGGQETQEYRLYREKKTAPWITRIPQELVKKGQFPIPSITWEHAGRYRCYYGSDTAGRSESSDPLELVVTGAYIKPTLSAQPSPVVNSGGNVTLQCDSQVAFDGFILCKEGEDEHPQCLNSQPHARGSSRAIFSVGPVSPSRRWWYRCYAYDSNSPYEWSLPSDLLELLVLG”, the “soluble on expression in E. coli” value is reported as “soluble”. In the case of “MEVQTETYRAAMNGTLERHFSDMIAVIPTRITIEQLKQRLENIATKVDELKIVYSDETSLIVELHMDETIIPYELHIDEANDPEEYKMYNRQDSTIVDRNFEDAAFGTEIFTRTLFVGDVLDCFFQQIQFLWNLAPDLLFVIDSSAAMKVISRNYIEYHVENELLPDIPDLYVIHSVYEDDKEGEPTQYWFHTHGLLRAGVTEIELIIPNRISSYYGIGDLFQTFANNAVENGQVPMNEPIVIAHSQQGSIHTVAVPWEKGLSYIGHKTSMDQLSSIEDEEVKLQPIDAQNTFLGGMDARDEYHQSPSVLLFKFNTSEEYIESFFKEHEEATGLMFYKTNSETDRMAYNAKNTFGYFSNIFQIEKSNEEFRFLAKFGVSYEEGKSEHMWFEMQHITEDLIQGILINEPYFIEDMSEGNSYHLDFDNLTDWVIYAGDAVIKPNNLYMFIGE”, the “soluble on expression in E. coli” value is reported as “not soluble”. For “MGSDKIHHHHHHMNFPRPLVPATLVQRYKRFLFDAILADGTAITGSCPNTGSMRGLTIPGSPIWLSEHDSPTRKYRHMLEIVEADGTLVGINTGLPNRIAEEAIMAGQVGNLHTYGTLRREQRYGRNSRIDILLSDAEKGLAYVEVKNVHFSRVRGLAEFPDSPTQRGAKHLEELGDMVEAGHRAIMLYLIQRGDCSRFRICRELDPVYARAFERASARGVEAYAVKCAVSPGQIVAAGPIVVDEPVPAVL”, the “soluble on expression in E. coli” value was “not soluble”. For “MSVPFLQQYRVGSYILKQKLAGNKRYPLVLMLEPLFQCNLACAGCGKIDYPEETLRRRLSVDECLHAVDECGAPVVSIAGGEPLIHKEMPQIVQGIIQRKKFVYLCTNALLLDTRMDDYQPSPYLTFSIHLDGNRERHDASVCREGVYDKVIPVIEQALQRGFRVTVNCTLFQSETAEEVAEFFDTATKLGVEGINVSPGFSYEHAPRQDVFLQRSVSKRLFRSIFEIGKKRKLPWKFNHSSLYLDFLAGNQSYKCTPWGNPTRNLFGWQRPCYLLVDEGYATSFRELMEETDWDRYGVGNNPKCANCMAHCGFEPTAINDTFAHPLKALRVSMRGPRVEGPMALDPLQTSSESQHNTDKRKPFPIPVTVEHKTVAPSSDHSSGPDN”, the “soluble on expression in E. coli” value was “not soluble”.

Reference: the DeepSol protein solubility set
